Drawing on patent publication US20210015937A1, this text covers EC50 (M), NFAT-Luciferase Reporter Gene assay (LAG-3:MHCII) for 2 substances.

The target in this experiment is human LAG-3 expressed on cells (human) (UniProt P18627). The experiment is described as follows: cell-based or functional assay.
human LAG-3 expressed on cells (human), sequence (P18627 23-525 limits assumed): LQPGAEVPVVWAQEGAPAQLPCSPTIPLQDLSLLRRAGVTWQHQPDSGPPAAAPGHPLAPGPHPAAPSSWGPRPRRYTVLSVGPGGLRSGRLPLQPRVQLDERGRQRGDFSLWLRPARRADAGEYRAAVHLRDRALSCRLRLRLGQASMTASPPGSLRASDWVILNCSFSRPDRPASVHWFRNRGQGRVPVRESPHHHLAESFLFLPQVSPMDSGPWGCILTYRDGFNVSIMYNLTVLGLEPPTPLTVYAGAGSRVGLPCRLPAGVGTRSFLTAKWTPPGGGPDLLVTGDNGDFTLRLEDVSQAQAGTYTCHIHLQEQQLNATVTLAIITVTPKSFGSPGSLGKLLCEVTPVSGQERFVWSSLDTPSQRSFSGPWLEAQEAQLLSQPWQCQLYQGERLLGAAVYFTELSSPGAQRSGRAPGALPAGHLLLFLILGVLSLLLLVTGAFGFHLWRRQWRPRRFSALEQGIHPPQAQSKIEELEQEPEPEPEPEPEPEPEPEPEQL

The substance “Human anti-LAG3 antibody (Relatlimab analogue)” came in with an EC50 (M), NFAT-Luciferase Reporter Gene assay (LAG-3:MHCII) of 4e-09 M.

As for Mouse anti-LAG3 antibody clone 17B4, the EC50 (M), NFAT-Luciferase Reporter Gene assay (LAG-3:MHCII) was 3.2e-08 M.
